Target: T1, Ets-1 ΔN331 (UniProt P27577 331-440)
T1 sequence: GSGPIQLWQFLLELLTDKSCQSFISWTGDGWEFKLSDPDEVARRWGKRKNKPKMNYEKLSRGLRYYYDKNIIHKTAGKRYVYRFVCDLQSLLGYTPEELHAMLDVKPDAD
Test: EMSA

B1: high affinity ETS binding site 27-mer duplex (dsDNA)
DNA 1: TCGACGGCCAAGCCGGAAGTGAGTGCC
DNA 2: TCGAGGCACTCACTTCCGGCTTGGCCG
- binding result: binds
